Experimental data reported in US20250297005A1 (FORTVITA BIOLOGICS SINGAPORE PTE, published 2025).
One block for each binder: values may come before it.

Assays:
[1] = biological target: T1, human CLDN18.2 on cells (HEK293-hCLDN18.2, DAN-G-hCLDN18.2, NUGC-4) (human, UniProt P56856-2 1-261); assay: cell-based or functional assay
T1 sequence (looked up): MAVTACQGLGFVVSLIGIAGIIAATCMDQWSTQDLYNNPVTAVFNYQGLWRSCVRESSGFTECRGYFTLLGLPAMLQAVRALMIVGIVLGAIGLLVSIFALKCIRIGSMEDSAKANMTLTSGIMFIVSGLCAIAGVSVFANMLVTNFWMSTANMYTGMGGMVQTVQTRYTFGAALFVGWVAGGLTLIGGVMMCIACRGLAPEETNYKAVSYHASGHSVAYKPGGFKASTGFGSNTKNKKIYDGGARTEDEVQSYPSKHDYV

[2] = biological target: T1, human CLDN18.2 on cells …; assay: flow cytometry of hybridoma supernatant on HEK293-hCLDN18.2 cells
Experimental: In the present invention, H2L2 fully human antibody transgenic mice (purchased from Harbour BioMed) were immunized with the cells obtained in Example 1 (CHO-hCLDN18.2) by using the hybridoma technology. Spleen cells from the mice were then harvested and electrofused with myeloma cells. […] The test cells (HEK293-hCLDN18.2) obtained in Example 1 were counted, diluted to 1×10⁶ cells/mL, and then added to a U-bottom 96-well plate at 100 µL/well. The cells were centrifuged at 500 g for 5 min, and the cell medium was removed. The hybridoma culture supernatant in a 96-well plate was added to the U-bottom plate at 100 μL/well, the cells were resuspended, and the suspension was left to stand on ice for 30 min. The suspension was centrifuged at 500 g for 5 min, the supernatant was removed, and the cells were washed once with PBS. 100 μL of FITC-labeled anti-mouse Fab secondary antibody (1:500 dilution in PBS) was added to each well, and 100 μL of FITC-labeled anti-human Fab secondary antibody was added to the positive control antibody. The resulting mixture was incubated on ice in the dark for 30 min. The mixture was centrifuged at 500 g for 5 min, the supernatant was removed, and the cells were washed once with PBS. The cells were resuspended in 50 μL of 1×PBS, and the suspension was loaded for FACS assay. […]

B1: bispecific antibody 030 (anti-CLDN18.2 moiety HB37A6 x anti-CD3 moiety HzSP34.24) (bispecific antibody, human IgG1, kappa, lambda, L234A L235A)
heavy 1: not shown
light 1: not shown
heavy 2: not shown
light 2: QAVVTQEPSLTVSPGGTVTLTCRSSTGAVTTSNYANWVQQKPGQAPRGLIGGTNKRAPGVPARFSGSLLGDKAALTLLGAQPEDEAEYYCALWYSNLWVFGQGTKLTVLGQPKAAPSVTLFPPSSEELQANKATLVCLISDFYPGAVTVAWKADSSPVKAGVETTTPSKQSNNKYAASSYLSLTPEQWKSHRSYSCQVTHEGSTVEKTVAPTECS
EC50 of in vitro T cell (PBMC) killing of gastric cancer cells NUGC-4 [1]: < 1 pM
EC50 of in vitro T cell (PBMC) killing of pancreatic cancer cells DAN-G-hCLDN18.2 [1]: < 0.1 pM

B2: bispecific antibody 032 (anti-CLDN18.2 moiety HB37A6 x anti-CD3 moiety HzSP34.87) (bispecific antibody, human IgG1, kappa, lambda, L234A L235A)
heavy 1: not shown
light 1: not shown
heavy 2: not shown
light 2: B1 light 2
EC50 of in vitro T cell (PBMC) killing of gastric cancer cells NUGC-4 [1]: < 1 pM
EC50 of in vitro T cell (PBMC) killing of pancreatic cancer cells DAN-G-hCLDN18.2 [1]: < 0.1 pM

binding result [2]: binds
B3: fully human antibody clone HB37A6 (hybridoma culture supernatant) (antibody, V domains shown)
VH: EVQLLDSGGGLVQPGGSLRLSCAASGFTFSSYVMSWVRQAPGKGLNWVSTISHSGGSTYYADSVKGRFTISRDNSKNTLYLQMNSLRAEDTAVYYCAIDAPYYDILTGYRYWGQGTLVTVSS
VL: not shown
notes: Tested as hybridoma supernatant from H2L2 transgenic mice; also called anti-CLDN18.2 antibody
